This note sets out measurements from patent publication US6977240 (Takeda / Millennium, dated 2005).

Assay [1] deals with human ObR long form, expressed on transfected cells (human) (UniProt P48357). Put plainly: cell-based or functional assay.
For assay [2], the target named is T1, murine short form ObR (clone famj5312), expressed on COS cells (mouse, UniProt P48356 23-889).
T1 construct: also called mouse ObR; mouse short form
T1 sequence: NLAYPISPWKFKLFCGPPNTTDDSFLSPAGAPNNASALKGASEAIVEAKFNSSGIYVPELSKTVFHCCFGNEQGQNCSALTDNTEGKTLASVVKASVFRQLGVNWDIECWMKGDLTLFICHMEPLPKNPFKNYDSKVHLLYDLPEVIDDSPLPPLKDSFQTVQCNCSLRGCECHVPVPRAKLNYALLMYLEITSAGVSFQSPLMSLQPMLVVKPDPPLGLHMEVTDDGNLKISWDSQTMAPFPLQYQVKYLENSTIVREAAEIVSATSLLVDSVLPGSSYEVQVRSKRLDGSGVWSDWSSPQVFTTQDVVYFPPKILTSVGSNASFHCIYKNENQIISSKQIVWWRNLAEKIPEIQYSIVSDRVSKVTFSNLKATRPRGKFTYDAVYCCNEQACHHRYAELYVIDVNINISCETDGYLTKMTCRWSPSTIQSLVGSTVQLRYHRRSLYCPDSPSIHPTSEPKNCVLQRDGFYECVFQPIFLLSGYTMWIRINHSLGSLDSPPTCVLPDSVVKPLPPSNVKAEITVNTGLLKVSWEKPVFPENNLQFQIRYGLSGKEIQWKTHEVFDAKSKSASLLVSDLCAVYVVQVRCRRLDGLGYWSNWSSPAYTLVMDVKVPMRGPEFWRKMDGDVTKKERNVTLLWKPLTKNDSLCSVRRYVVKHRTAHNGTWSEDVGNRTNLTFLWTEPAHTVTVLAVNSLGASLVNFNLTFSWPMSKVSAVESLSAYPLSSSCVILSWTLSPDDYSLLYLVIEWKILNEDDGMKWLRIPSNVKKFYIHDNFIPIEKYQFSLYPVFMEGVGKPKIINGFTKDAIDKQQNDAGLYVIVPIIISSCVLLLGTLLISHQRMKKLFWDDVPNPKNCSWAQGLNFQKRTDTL
Put plainly: Scatchard transformation of AP-OB binding to transfected COS cells. On the procedure: (§1) FIG. 2B-1 Binding isotherm and Scatchard analysis of the interaction of AP-Ob and ObR. COS-7 cells transfected with the obR cDNA were incubated with various concentrations of the AP-Ob (mouse) fusion protein FIG. 2B-2. Scatchard transformation is shown as an inset. Paragraph beginning at page 16, line 3, please replace the paragraph with the following text:
(§2) After transient transfection of the ObR clone into COS cells, strong binding of 1 nM murine AP-Ob is detected (relative to mock transfected COS cells or ObR transfected COS cells incubated with unfused AP) (FIG. 2A). […] A fusion between AP and human Ob also binds mouse ObR with high affinity, as does a fusion protein with mouse leptin at the N-terminus and AP at the C-terminus (Ob-AP).
(§3) To determine whether ObR has the ability to recruit the cellular signaling machinery, COS cells were transiently transfected with expression vectors for the two representative forms of ObR, mouse short form (also corresponding to a mutated form detected in db/db mice) and human long form. Two days after transfection, cells were incubated in 1 nM human or mouse alkaline phosphatase-OB, and cell surface expression of ObR was detected as indicated by specific binding of the alkaline phosphatase-OB (AP-OB) fusion protein.

Assay [3] addresses T2, human ObR long form, expressed on transfected cells (human, UniProt P48357 21-1165).
T2 construct: also called human long form; long form of ObR
T2 sequence: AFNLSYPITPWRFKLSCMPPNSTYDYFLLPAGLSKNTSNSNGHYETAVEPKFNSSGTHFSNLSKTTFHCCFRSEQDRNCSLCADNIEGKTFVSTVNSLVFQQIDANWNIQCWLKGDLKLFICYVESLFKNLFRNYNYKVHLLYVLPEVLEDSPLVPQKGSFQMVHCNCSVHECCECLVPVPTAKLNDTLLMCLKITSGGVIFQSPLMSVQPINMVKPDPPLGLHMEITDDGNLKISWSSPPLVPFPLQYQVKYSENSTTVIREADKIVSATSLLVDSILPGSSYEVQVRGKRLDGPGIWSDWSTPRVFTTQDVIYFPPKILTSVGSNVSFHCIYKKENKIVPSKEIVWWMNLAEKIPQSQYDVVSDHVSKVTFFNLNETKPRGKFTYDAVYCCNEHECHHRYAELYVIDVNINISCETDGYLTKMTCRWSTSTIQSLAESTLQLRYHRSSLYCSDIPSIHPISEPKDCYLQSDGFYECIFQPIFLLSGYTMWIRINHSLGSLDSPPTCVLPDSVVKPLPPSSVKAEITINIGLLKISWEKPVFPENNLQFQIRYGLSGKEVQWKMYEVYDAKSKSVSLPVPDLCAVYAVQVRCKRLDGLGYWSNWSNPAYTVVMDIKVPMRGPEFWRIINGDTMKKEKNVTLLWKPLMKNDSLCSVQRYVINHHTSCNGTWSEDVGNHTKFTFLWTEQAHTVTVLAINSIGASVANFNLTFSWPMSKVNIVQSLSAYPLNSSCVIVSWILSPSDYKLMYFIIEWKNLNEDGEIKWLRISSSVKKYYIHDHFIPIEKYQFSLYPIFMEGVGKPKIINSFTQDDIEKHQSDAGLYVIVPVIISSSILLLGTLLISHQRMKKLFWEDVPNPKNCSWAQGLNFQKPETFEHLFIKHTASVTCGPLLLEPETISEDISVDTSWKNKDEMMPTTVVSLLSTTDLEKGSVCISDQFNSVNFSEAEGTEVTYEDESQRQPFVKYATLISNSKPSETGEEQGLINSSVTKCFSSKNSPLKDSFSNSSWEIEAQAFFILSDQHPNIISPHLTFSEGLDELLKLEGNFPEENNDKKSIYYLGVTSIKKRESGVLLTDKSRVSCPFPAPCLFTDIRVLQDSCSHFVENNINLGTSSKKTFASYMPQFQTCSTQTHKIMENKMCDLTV
The description is as above. On the procedure:
as §1, §2, §3

In assay [4] the target is T1, murine short form ObR (clone famj5312), …. The assay can be described thus: 1 nM AP-OB on transfected COS cells; reference human long form ObR; laid to surface expression by the filing. On the procedure:
COS-1, H-35 and Hep3B cells were transfected with plasmid DNA by the DEAE-dextran method (Lopata et al., 1989, *Nucleic Acids Res.* 12:5707–5717); HepG2 cells by the calcium phosphate method (Graham et al., 1973, *Virology* 52:456–461); and COS-7 cells by the lipofectamine method. Subcultures of COS cells were maintained for 16 hours in serum-free medium prior to the activation of STAT proteins by treatment with cytokines for 15 minutes. DNA binding by STAT proteins was determined by EMSA on whole cell extracts as described in Sadowski et al. (1993, *Science* 26:1739–1744). […] CAT activities were quantitated by testing serial dilutions of cell extracts, normalized to the expression of the cotransfected marker plasmid pIE-MUP (Morella et al., 1995, *J. Biol. Chem.* 270:[…]), and are expressed relative the value of the untreated control cultures in each experimental series (defined as =1.0). Quantitative cell surface binding of the AP-OB fusion protein (Section 6) was done essentially as outlined by Cheng and Flanagan (1994, Cell 79:157–168).
To determine whether ObR has the ability to recruit the cellular signaling machinery, COS cells were transiently transfected with expression vectors for the two representative forms of ObR, mouse short form (also corresponding to a mutated form detected in db/db mice) and human long form. […]

For assay [5], the target named is T3, Ob receptor in mouse choroid plexus tissue (mouse, UniProt P48356 23-889).
T3 construct: Native receptor in quartered mouse brain
T3 sequence: T1 sequence
Put plainly: AP staining of quartered mouse brain tissue. On the procedure: (§4) In Situ Fusion Protein Binding. Quartered mouse brains, isolated choroid plexus, cells, and cell lines were rinsed once with HBHA (Hank's balanced salt solution with 0.5 mg/ml BSA, 0.1% NaN_3, 20 mM HEPES [pH 7.0]) in 12-well plates. Tissue was then incubated with tissue culture supernatants containing AP-Ob fusion, Ob-AP fusion, or control supernatants (i.e., supernatants containing unfused AP only, containing AP-OB or OB-AP fusion proteins plus 80-fold molar excess of *E. coli*-derived recombinant OB, or supernatants from mock-transfected COS cells), for 75 minutes with gentle rotation, at room temperature. Samples were then treated as described previously (Cheng, H. J. and Flanagan, J. G., 1994, *Cell* 79:157–168).

The target in assay [6] is T1, murine short form ObR (clone famj5312), …. The assay can be described thus: AP activity bound to COS cells transfected with the ObR clone. On the procedure: as §4, §2

As to “leptin (Section 16, species not stated) (ligand)”, the pIL6RE-SEAP reporter activity in 293 cells, 100 ng/ml leptin for 24 hours in assay [1] was found to be 8 fold.

B1: mouse AP-Ob fusion protein (ligand, UniProt P41160 22-167, looked up, not shown: large carriers)
chain: VPIQKVQDDTKTLIKTIVTRINDISHTQSVSAKQRVTGLDFIPGLHPILSLSKMDQTLAVYQQVLTSLPSQNVLQIANDLENLRDLLHLLAFSKSCSLPQTSGLQKPESLDGVLEASLYSTEVVALSRLQGSLQDILQQLDVSPEC
notes: mature; AP at the N-terminus, predicted mature Ob at the C-terminus; used as COS-7 conditioned medium; also called murine AP-Ob; AP-Ob (mouse)
Usually Kd stands for the concentration at which binding is half-saturated. Higher therefore signals lower affinity. Consider B1, for which the figures for the Kd in assay [2] and in assay [3] were 0.7 nM and 1 nM, respectively. In assay [4], the “fold binding against the long form” value was roughly 10 fold.

B2: unfused AP (alkaline phosphatase) (enzyme, UniProt P05187 23-511, looked up)
chain: IIPVEEENPDFWNREAAEALGAAKKLQPAQTAAKNLIIFLGDGMGVSTVTAARILKGQKKDKLGPEIPLAMDRFPYVALSKTYNVDKHVPDSGATATAYLCGVKGNFQTIGLSAAARFNQCNTTRGNEVISVMNRAKKAGKSVGVVTTTRVQHASPAGTYAHTVNRNWYSDADVPASARQEGCQDIATQLISNMDIDVILGGGRKYMFRMGTPDPEYPDDYSQGGTRLDGKNLVQEWLAKRQGARYVWNRTELMQASLDPSVTHLMGLFEPGDMKYEIHRDSTLDPSLMEMTEAALRLLSRNPRGFFLFVEGGRIDHGHHESRAYRALTETIMFDDAIERAGQLTSEEDTLSLVTADHSHVFSFGGYPLRGSSIFGLAPGKARDRKAYTVLLYGNGPGYVLKDGARPDVTESESGSPEYRQQSAVPLDEETHAGEDVAVFARGPQAHLVHGVQEQTFIAHVMAFAACLEPYTACDLAPPAGTTDAAHPG
notes: Control; also called control AP
For B2, the binding result in assay [5] and in assay [6] was “no binding” in each case.
